Data reported in patent US20240166745A1 (Eli Lilly, published 2024).

T1: Human LAG-3 ECD-His (human, UniProt P18627 23-449)
T1 construct: Soluble analyte in SPR; the entry includes linker and His tag; also called human LAG-3-His
T1 sequence: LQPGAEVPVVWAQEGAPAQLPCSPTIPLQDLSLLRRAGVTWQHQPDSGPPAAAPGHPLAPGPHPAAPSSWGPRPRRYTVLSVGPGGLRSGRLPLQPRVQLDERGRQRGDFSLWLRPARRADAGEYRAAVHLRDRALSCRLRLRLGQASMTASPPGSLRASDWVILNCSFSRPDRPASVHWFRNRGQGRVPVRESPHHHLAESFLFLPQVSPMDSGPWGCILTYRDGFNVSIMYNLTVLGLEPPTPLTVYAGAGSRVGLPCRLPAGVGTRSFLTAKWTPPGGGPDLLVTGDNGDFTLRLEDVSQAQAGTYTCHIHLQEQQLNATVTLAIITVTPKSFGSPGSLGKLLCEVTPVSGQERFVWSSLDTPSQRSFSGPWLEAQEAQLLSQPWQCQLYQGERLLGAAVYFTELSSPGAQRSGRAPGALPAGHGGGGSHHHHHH


How the values were obtained:
Cynomolgus PD-1-ECD [1] = molecular target: T2, Cynomolgus PD-1-ECD (cynomolgus, UniProt B0LAJ3 25-170); test: SPR (Biacore T200), antibody captured on PrismA chip, ECD as analyte, 37° C.
T2 construct: commercial protein; also called cynomolgus PD-1-ECD (Sino Biologicals, Cat #90311-C08H); not shown: C-terminal polyhistidine tag of the vendor product (Sino Biological 90311-C08H)
T2 sequence (B0LAJ3 entry or part of it limits assumed): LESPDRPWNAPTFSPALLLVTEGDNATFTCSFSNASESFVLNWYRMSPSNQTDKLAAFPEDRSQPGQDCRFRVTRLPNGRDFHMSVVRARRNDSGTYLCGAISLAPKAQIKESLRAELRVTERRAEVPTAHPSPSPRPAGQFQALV
Method: (§1) A Biacore® T200 (Cytiva, Marlborough, MA) was used to measure the binding kinetics and affinities of the LAG-3 antibody to the LAG-3 soluble extracellular domain (ECD) and the bispecific antibody to soluble LAG-3-ECD and PD-1-ECD (human: Sino Biologicals, Cat #10377-H08H; cynomolgus: Sino Biologicals, Cat #90311-C08H) by surface plasmon resonance. Samples were diluted in HBS-EP+ (10 mM Hepes, 150 mM NaCl, 3 mM EDTA, 0.05% Tween-20, pH 7.6) (Teknova Cat #H8022) with 5 g/L of BSA (Jackson ImmunoResearch Cat #001-000-161) running buffer. PrismA Series S Sensor chip (Cat #29650263) is purchased from Cytiva.
(§2) Binding was evaluated using multi-cycle kinetics by an antibody capture method. Each cycle was performed at either 37° C. or 25° C. at a flow rate of 10 μL/min for antibody capture to the PrismA chip and 100 μL/min for analyte association (with 120 sec contact time) and dissociation (900 sec). Each cycle consisted of the following steps: injection of bispecific antibody at 1 μg/mL in HBS-EP+ targeting Rmax values of 125 RU (LAG-3 arm), 294 RU (PD-1 arm) and 63 RU (LAG-3 antibody) on flow cell, injection of analyte in HBS-EP+(concentration range of 62.5 nM to 0.25 nM by two-fold serial dilution for both human PD-1-ECD-His (SEQ ID NO: 40) and human LAG-3-His (SEQ ID NO: 42) followed by 900-second dissociation phase, and regeneration using 10 μL of 10 mM glycine hydrochloride, pH 1.5 over a 60-second contact time utilizing a 10 μL/min flow rate. All analyte concentrations were determined utilizing monomeric molecular weight (MW) values. Association rates (kₒₙ) and dissociation rates (koff) for LAG-3-ECD and PD-1-ECD were evaluated using double referencing by flow-cell one reference subtraction in addition to 0 nM blank subtraction and fit to “1:1 (Langmuir) binding” model in the BIAevaluation software version 4.1. The dissociation constant (KD) was calculated from the binding kinetics according to the relationship KD=Koff/Kₒₙ. Stoichiometry=[RUₘₐₓ/RUcaptured]/[MWanalyte/MWantibody] where MWAntibodyA is 150 kDa. Values are reported as mean±standard deviation.

Human PD-1 ECD-His [2] = molecular target: T3, Human PD-1 ECD-His (human, UniProt Q15116 25-167); test: as above
T3 construct: Soluble analyte in SPR; the entry includes the His tag
T3 sequence (Q15116 other isoform, or with tags, fused parts or gaps): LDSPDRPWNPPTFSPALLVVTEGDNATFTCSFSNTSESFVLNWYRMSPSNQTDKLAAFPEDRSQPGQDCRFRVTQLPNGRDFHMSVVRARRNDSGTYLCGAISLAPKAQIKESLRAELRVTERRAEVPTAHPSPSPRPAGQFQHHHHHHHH
Method: as §1, §2

Human PD-1 ECD-His [3] = molecular target: T3, Human PD-1 ECD-His; test: SPR (Biacore T200), antibody captured on PrismA chip, ECD as analyte, 25° C.; 25° C.
Method: as §1
Binding was evaluated using multi-cycle kinetics by an antibody capture method. […] Each cycle consisted of the following steps: injection of bispecific antibody at 1 μg/mL in HBS-EP+ targeting Rmax values of 125 RU (LAG-3 arm), 294 RU (PD-1 arm) and 63 RU (LAG-3 antibody) on flow cell, injection of analyte in HBS-EP+(concentration range of 62.5 nM to 0.25 nM by two-fold serial dilution for both human PD-1-ECD-His (SEQ ID NO: 40) and human LAG-3-His (SEQ ID NO: 42) followed by 900-second dissociation phase, and regeneration using 10 μL of 10 mM glycine hydrochloride, pH 1.5 over a 60-second contact time utilizing a 10 μL/min flow rate. All analyte concentrations were determined utilizing monomeric molecular weight (MW) values. […]

Cynomolgus PD-1-ECD [4] = molecular target: T2, Cynomolgus PD-1-ECD; test: SPR (Biacore T200), antibody captured on PrismA chip, ECD as analyte; temperature unclear: the 37° C. label is printed only at r14, by the order of Table 3a probably 37° C.
Method: as §1, §2

Human PD-1 ECD-His [5] = molecular target: T3, Human PD-1 ECD-His; test: as above
Method: as §1, §2

Human LAG-3 ECD-His = molecular target: T1, Human LAG-3 ECD-His; test: SPR (Biacore T200), antibody captured on PrismA chip, ECD as analyte, 37° C.
Method: as §1, §2

Binder	Kd (Cynomolgus PD-1-ECD [1]) [nM]	koff (Cynomolgus PD-1-ECD [1]) [s⁻¹]	kon (Cynomolgus PD-1-ECD [1]) [M⁻¹ s⁻¹]	Kd (Human PD-1 ECD-His [2]) [nM]	koff (Human PD-1 ECD-His [2]) [s⁻¹]	kon (Human PD-1 ECD-His [2]) [M⁻¹ s⁻¹]	kon (Human PD-1 ECD-His [3]) [M⁻¹ s⁻¹]	Kd (Cynomolgus PD-1-ECD [4]) [nM]	koff (Cynomolgus PD-1-ECD [4]) [s⁻¹]	kon (Cynomolgus PD-1-ECD [4]) [M⁻¹ s⁻¹]	Kd (Human PD-1 ECD-His [5]) [nM]	koff (Human PD-1 ECD-His [5]) [s⁻¹]	Kd (Human LAG-3 ECD-His) [nM]	koff (Human LAG-3 ECD-His) [s⁻¹]	kon (Human LAG-3 ECD-His) [M⁻¹ s⁻¹]
Antibody A (bispecific antibody, human IgG1, kappa, lambda, IgG-like bispecific with one LAG-3 arm and one PD-1 arm; also called human LAG-3/human PD-1 dual agonist bispecific antibody) heavy 1: not shown light 1: DIVMTQTPLSLPVTPGEPASISCRSSQSLLDSAEGSTYLDWFLRKPGDSPQLLIYTLSYRASGVPDRFSGSGSGTDFTLKISRVEAEDVGVYYCMQRVEFPYTFGQGTKVEIKRTVAAPSVFIFPPSKEQLKSGTASVVCLLNNFYPREAKVQWKVDNALQSGNSQESVTEQDSKDSTYSLSSTLTLSKADYEKHKVYACEVTHQGLSSPVTKSFNRGEC heavy 2: QVQLVQSGAEVKKPGASVKVSCKVSGYSLSKYDMSWVRKAPGKGLEWMGIIYTSGYTDYAQEFQGRVTMTEDTSTDTAYMELSSLRSEDTAVYYCATGNPYYTNGFNSWGQGTLVTVSSASTKGPSVFPLAPSSKSTSGGTAALGCLVKDYFPEPVTVSWNSGALTSGVATGPAVLQSSGLYSLSSVVTVPSSSLGTQTYICNVNHKPSNTKVDKRVEPKSCDKTHTCPPCPAPELLGGPSVFLFPPKPKDTLMISRTPEVTCVVVDVSHEDPEVKFNWYVDGVEVHNAKTKPREEQYNSTYRVVSVLTVLHQDWLNGKEYKCKVSNKALPAPIEKTISKAKGQPREPQVYTLPPSREEMTDNQVSLTCLVKGFYPSDIAVEWESNGQPENNYKTTPPVLMSDGSFFLASKLTVDKSRWQQGNVFSCSVMHEALHNHYTQKSLSLSPGK light 2: RIQMTQSPSSLSASVGDRVTITCQASQSPNNLLAWYQDKPGKAPKLLIYGASDLPSGVPSRFSGSGSGTDFTLTISSLQPEDFATYYCQNNYYVGPVSYAFGGGTKVEIKGQPKAAPSVTLFPPSSEELQANKATLVCYISDFYPGAVTVAWKADSSPVKAGVETTTPSKQSNNKYAAWSYLSLTPEQWKSHRSYSCQVTHEGSTVEKTVAPTEC	3.5	0.0087	2.5e+06	0.66	0.0017	2.5e+06	750000	–	–	–	–	–	–	–	–
Antibody B (bispecific antibody, human IgG1, kappa, lambda, also called human LAG-3/human PD-1 dual agonist bispecific antibody) heavy 1: not shown light 1: DIVMTQTPLSLPVTPGEPASISCRSSQSLLDSAEGSTYLDWFLRKPGDSPQLLIYTLSYRASGVPDRFSGSGSGTDFTLKISRVEAEDVGVYYCMQRVEFPYTFGQGTKVEIKRTVAAPSVFIFPPSKEQLKSGTASVVCLLNNFYPREAKVQWKVDNALQSGNSQESVTEQDSKDSTYSLSSTLTLSKADYEKHKVYACEVTHQGLSSPVTKSFNRGEC heavy 2: QVQLVQSGAEVKKPGASVKVSCKVSGYSLSKYDMSWVRKAPGKGLEWMGIIYTSGYTDYAQEFQGRVTMTEDTSTDTAYMELSSLRSEDTAVYYCATGNPYYTNGFNSWGQGTLVTVSSASTKGPSVFPLAPSSKSTSGGTAALGCLVKDYFPEPVTVSWNSGALTSGVATGPAVLQSSGLYSLSSVVTVPSSSLGTQTYICNVNHKPSNTKVDKRVEPKSCDKTHTCPPCPAPELLGGPSVFLFPPKPKDTLMISRTPEVTCVVVDVSHEDPEVKFNWYVDGVEVHNAKTKPREEQYNSTYRVVSVLTVLHQDWLNGKEYKCAVSNKALPAPIEKTISKAKGQPREPQVYTLPPSREEMTDNQVSLTCLVKGFYPSDIAVEWESNGQPENNYKTTPPVLMSDGSFFLASKLTVDKSRWQQGNVFSCSVMHEALHNHYTQKSLSLSPGK light 2: RIQMTQSPSSLSASVGDRVTITCQASQSPNNLLAWYQDKPGKAPKLLIYGASDLPSGVPSRFSGSGSGTDFTLTISSLQPEDFATYYCQNNYYVGPVSYAFGGGTKVEIKGQPKAAPSVTLFPPSSEELQANKATLVCYISDFYPGAVTVAWKADSSPVKAGVETTTPSKQSNNKYAAWSYLSLTPEQWKSHRSYSCQVTHEGSTVEKTVAPTEC	–	–	–	–	–	–	–	3.1	0.0088	2.8e+06	0.65	0.0015	6.1	0.34	5.5e+07
